Test results published in the Immune Epitope Database (IEDB).

How the values were obtained:
[1] = target: HLA-B*15:01; test: IEDB peptide-MHC binding, purified MHC/competitive/radioactivity; filed as Kd, often an IC50 or EC50 that approximates it; ≥ and ≤ were set here for values at or beyond the usual limits of such assays
[2] = target: HLA-A*32:01; test: as above
[3] = target: HLA-B*53:01; test: as above
[4] = target: HLA-B*07:02; test: as above
[5] = target: HLA-B*35:01; test: as above
[6] = target: HLA-B*54:01; test: as above
[7] = target: HLA-B*51:01; test: as above
[8] = target: HLA-A*30:02; test: as above
[9] = target: HLA-A*26:01; test: as above
[10] = target: HLA-B*08:01; test: as above
[11] = target: HLA-A*02:06; test: as above; details: source organism: Dengue virus 4 Philippines/H241/1956
[12] = target: HLA-A*30:01; test: as above
[13] = target: HLA-A*29:02; test: as above
[14] = target: HLA-A*01:01; test: as above
[15] = target: HLA-B*40:01; test: as above
[16] = target: HLA-A*03:01; test: IEDB peptide-MHC binding, purified MHC/competitive/fluorescence; filed as Kd, often an IC50 or EC50 that approximates it; ≥ and ≤ were set here for values at or beyond the usual limits of such assays
[17] = target: HLA-A*02:01; test: IEDB peptide-MHC binding, purified MHC/competitive/radioactivity; filed as Kd, often an IC50 or EC50 that approximates it; ≥ and ≤ were set here for values at or beyond the usual limits of such assays
[18] = target: HLA-B*57:01; test: IEDB peptide-MHC binding, purified MHC/competitive/fluorescence; filed as Kd, often an IC50 or EC50 that approximates it; ≥ and ≤ were set here for values at or beyond the usual limits of such assays; details: source organism: Homo sapiens
[19] = target: HLA-B*46:01; test: as above; details: source organism: Homo sapiens
[20] = target: HLA-A*26:01; test: as above; details: source organism: Homo sapiens
[21] = target: HLA-A*69:01; test: as above; details: source organism: Homo sapiens
[22] = target: HLA-B*27:03; test: as above; details: source organism: Homo sapiens
[23] = target: HLA-B*51:01; test: as above; details: source organism: Homo sapiens
[24] = target: HLA-B*44:03; test: IEDB peptide-MHC binding, purified MHC/competitive/radioactivity; filed as Kd, often an IC50 or EC50 that approximates it; ≥ and ≤ were set here for values at or beyond the usual limits of such assays
[25] = target: HLA-B*44:02; test: as above
[26] = target: HLA-A*69:01; test: IEDB peptide-MHC binding, purified MHC/direct/fluorescence; filed as Kd, often an IC50 or EC50 that approximates it; ≥ and ≤ were set here for values at or beyond the usual limits of such assays; details: source organism: Mycobacterium tuberculosis
[27] = target: HLA-A*02:12; test: as above; details: source organism: Mycobacterium tuberculosis str. Haarlem
[28] = target: HLA-A*24:02; test: IEDB peptide-MHC binding, purified MHC/competitive/radioactivity; filed as Kd, often an IC50 or EC50 that approximates it; ≥ and ≤ were set here for values at or beyond the usual limits of such assays; details: source organism: Lymphocytic choriomeningitis virus (strain Armstrong)
[29] = target: HLA-A*23:01; test: as above; details: source organism: Lymphocytic choriomeningitis virus (strain Armstrong)
[30] = target: HLA-A*68:01; test: as above; details: source organism: Dengue virus 3 Martinique/1243/1999
[31] = source organism: Vaccinia virus WR
[32] = source organism: SARS coronavirus Tor2
[33] = source organism: Mammarenavirus whitewaterense
[34] = source organism: Mammarenavirus juninense
[35] = source organism: Dengue virus 4 Philippines/H241/1956
[36] = source organism: Dengue virus 1 Brazil/97-11/1997
[37] = source organism: Mammarenavirus choriomeningitidis
[38] = source organism: Triticum aestivum
[39] = source organism: Dengue virus 3 Martinique/1243/1999
[40] = source organism: Dengue virus 2 Jamaica/1409/1983
[41] = source organism: Vaccinia virus Copenhagen
[42] = source organism: Dengue virus 4 Dominica/814669/1981
[43] = source organism: Mammarenavirus brazilense
[44] = source organism: Lassa virus Josiah
[45] = source organism: Dengue virus 1 Singapore/S275/1990
[46] = source organism: Lymphocytic choriomeningitis virus (strain Armstrong)

## HINKLFSVF
[1]; [31]
  Kd: 0.915 nM
[2]; [31]
  Kd: 907 nM

## VPYNMRVIHF
[3]; [32]
  Kd: 688 nM
[4]; [32]
  Kd: 149 nM
[5]; [32]
  Kd: 1440 nM
[6]; [32]
  Kd: 505 nM
[7]; [32]
  Kd: 5590 nM

## APTGGVVKI
[3]; [33]
  Kd: 10500 nM
[4]; [33]
  Kd: 1780 nM
[5]; [33]
  Kd: 9320 nM
[6]; [33]
  Kd: ≥ 78100 nM
[7]; [33]
  Kd: ≥ 57800 nM

## MAVELFQTI
[3]; [34]
  Kd: 6.99 nM
[4]; [34]
  Kd: 7280 nM
[5]; [34]
  Kd: 61 nM
[6]; [34]
  Kd: 188 nM
[7]; [34]
  Kd: 8.54 nM

## LPIDKCSRII
[3]; [32]
  Kd: 603 nM
[4]; [32]
  Kd: 1400 nM
[5]; [32]
  Kd: 2550 nM
[6]; [32]
  Kd: 1140 nM
[7]; [32]
  Kd: 681 nM

## AVFKMSPGY
[1]; [35]
  Kd: 14.3 nM
[8]; [35]
  Kd: 82.2 nM
[9]; [35]
  Kd: 1920 nM

## LMTGTLAVFL
[10]; [36]
  Kd: 1700 nM

## IQRTVFFVL
[11]
  Kd: 12.3 nM
[1]; [35]
  Kd: 5.09 nM

## GPMPYMISTY
[3]; [31]
  Kd: 272 nM
[4]; [31]
  Kd: 886 nM
[5]; [31]
  Kd: 89.3 nM
[6]; [31]
  Kd: 1500 nM
[7]; [31]
  Kd: ≥ 64700 nM

## LEADYVESM
[1]; [31]
  Kd: 434 nM

## FRRLRKGSI
[10]; [31]
  Kd: 3.01 nM

## SLQQRLEDL
[10]; [31]
  Kd: 158 nM

## TTDVKAAVI
[12]; [37]
  Kd: ≥ 72200 nM
[8]; [37]
  Kd: ≥ 23700 nM
[13]; [37]
  Kd: 10400 nM
[2]; [37]
  Kd: ≥ 77800 nM
[9]; [37]
  Kd: ≥ 77900 nM
[14]; [37]
  Kd: 955 nM

## IENLEYTVVV
[15]; [35]
  Kd: 157 nM

## QPFPQPQL
[3]; [38]
  Kd: ≥ 87700 nM
[4]; [38]
  Kd: 583 nM
[5]; [38]
  Kd: ≥ 87800 nM
[6]; [38]
  Kd: ≥ 20300 nM
[7]; [38]
  Kd: 2160 nM

## CPASKKESVI
[3]; [31]
  Kd: 92.3 nM
[4]; [31]
  Kd: 7.12 nM
[5]; [31]
  Kd: ≥ 69900 nM
[6]; [31]
  Kd: 2410 nM
[7]; [31]
  Kd: 9310 nM

## QMANGIALGL
[1]; [39]
  Kd: 191 nM

## EKEENLVNSL
[10]; [40]
  Kd: 1840 nM

## IILAHFLYK
[16]; source organism: Bacillus anthracis str. A0488
  Kd: 12 nM

## AMIELCGAF
[1]; [31]
  Kd: 0.336 nM

## LAKKSYVVF
[1]; [41]
  Kd: 97.3 nM

## SKKTRISDL
[10]; source organism: Cowpox virus
  Kd: 2.76 nM

## SMFTLRHII
[10]; [31]
  Kd: 1.81 nM
[2]; [31]
  Kd: 82.8 nM

## TQVPFCSHHF
[1]; [40]
  Kd: 2.37 nM

## FIMIVGGLV
[17]; source organism: HIV-1 M:B_MN
  Kd: 382 nM

## KMFTYLMES
[18]
  Kd: ≥ 20000 nM
[19]
  Kd: ≥ 20000 nM
[20]
  Kd: ≥ 20000 nM
[21]
  Kd: ≥ 20000 nM
[22]
  Kd: ≥ 20000 nM
[23]
  Kd: ≥ 20000 nM

## LMYADDTAGW
[3]; [42]
  Kd: 46.1 nM
[1]; [42]
  Kd: 41.6 nM

## EEMFKKRNL
[24]; [39]
  Kd: 483 nM
[15]; [39]
  Kd: 6310 nM
[25]; [39]
  Kd: 51.2 nM

## LNRRRRTAG
[10]; [40]
  Kd: 739 nM

## LMGFRNSAL
[10]; [31]
  Kd: 1100 nM

## ATTNAHCALL
[12]; [33]
  Kd: 2350 nM
[8]; [33]
  Kd: 6040 nM
[13]; [33]
  Kd: ≥ 71400 nM
[2]; [33]
  Kd: ≥ 69900 nM
[9]; [33]
  Kd: ≥ 69700 nM
[14]; [33]
  Kd: 7670 nM

## NVFKAMETF
[1]; [31]
  Kd: 22.8 nM

## GEMCEDTVTY
[24]; [35]
  Kd: 104 nM
[15]; [35]
  Kd: 918 nM
[25]; [35]
  Kd: 35.4 nM

## LLSEMLNKEY
[12]; [43]
  Kd: 10900 nM
[8]; [43]
  Kd: 701 nM
[13]; [43]
  Kd: 511 nM
[2]; [43]
  Kd: ≥ 38600 nM
[9]; [43]
  Kd: 15800 nM
[14]; [43]
  Kd: 446 nM

## ATIWRSLSI
[2]; [41]
  Kd: 1.89 nM

## CLLNYSGLK
[16]; source organism: Escherichia coli O139:H28 str. E24377A
  Kd: 27.8 nM

## LIALSVLAVL
[17]; [44]
  Kd: 2780 nM

## GLLDVTDNV
[26]
  Kd: 486 nM
[27]
  Kd: 3 nM

## FLDEFMEAV
[17]; source organism: Homo sapiens
  Kd: 8.3 nM

## ALPRNMVIT
[17]; [44]
  Kd: 12500 nM

## SLGCKPLTM
[10]; [45]
  Kd: 169 nM

## VCLSGEGWPY
[12]; [46]
  Kd: ≥ 33200 nM
[28]
  Kd: ≥ 70300 nM
[2]; [46]
  Kd: ≥ 26100 nM
[9]; [46]
  Kd: ≥ 69700 nM
[29]
  Kd: ≥ 70000 nM

## QIAMTDTTPF
[1]; [36]
  Kd: 7.04 nM

## SEGIFSPSEL
[24]; [45]
  Kd: 77.5 nM
[15]; [45]
  Kd: 5.6 nM
[25]; [45]
  Kd: 66.3 nM

## LETLLLLTLL
[15]; [40]
  Kd: 101 nM

## WELVDKERNL
[15]; source organism: Dengue virus 2 Peru/IQT2913/1996
  Kd: 222 nM

## LVRHYFRYI
[1]; [31]
  Kd: 158 nM

## NRRKRSVTM
[10]; [36]
  Kd: 6.72 nM

## YLLSLFSTL
[10]; [31]
  Kd: 4.02 nM

## TTWALCESI
[2]; [36]
  Kd: 293 nM

## VLQQSTYQL
[17]; [38]
  Kd: 58 nM

## LLLKERGLK
[16]; source organism: Vibrio vulnificus CMCP6
  Kd: 29.6 nM

## YLMLLFAAM
[10]; [31]
  Kd: 138 nM

## LSASVFYRG
[1]; [31]
  Kd: 295 nM

## SPMGKLTFF
[10]; [31]
  Kd: 262 nM

## MTIDLDPVIY
[1]; [39]
  Kd: 5.32 nM
[8]; [39]
  Kd: ≥ 25400 nM
[5]; [39]
  Kd: 24.8 nM
[9]; [39]
  Kd: 5.59 nM
[14]; [39]
  Kd: 2990 nM
[30]
  Kd: 11.9 nM

## KTWGKAKIV
[2]; [39]
  Kd: 1260 nM

## PNERRAWNFL
[2]; [35]
  Kd: ≥ 25300 nM

## KIWGRKSWPL
[10]; [45]
  Kd: 382 nM

## NEGIMAVGL
[24]; [35]
  Kd: 1540 nM
[15]; [35]
  Kd: 2260 nM

## EVKTCIWPKS
[2]; [36]
  Kd: ≥ 49500 nM

## FLLSLVEFF
[1]; [31]
  Kd: 0.816 nM

## LEKASLIEV
[15]; [39]
  Kd: 1030 nM
[25]; [39]
  Kd: ≥ 77900 nM

## VEMGEAAGIF
[24]; [40]
  Kd: 592 nM
[15]; [40]
  Kd: 1150 nM
[25]; [40]
  Kd: 39.2 nM

## LGKKKTPRM
[10]; [40]
  Kd: 378 nM

## YLRTKPASA
[10]; [31]
  Kd: 1.48 nM

## RVIEVLQRA
[17]; source organism: HIV-1 M:B_MN
  Kd: 25 nM

## SLLRKFLYC
[10]; [31]
  Kd: 701 nM

## WELVDRERNL
[15]; [40]
  Kd: 116 nM

## AIKLGFKSL
[10]; [31]
  Kd: 41.3 nM
